# Experimental data published in US20080299638A1 (priority 2004, published 2008).
# Where “and” joins values, the source holds several entries; their conditions need not be identical. Equal values may be shown once.
# B1: Arginase: Pegylated recombinant human arginase (BCT-100); human arginase I with N-terminal six-histidine tag, SEQ ID NO: 3 (protein, listed as Homo sapiens)
# chain: MHHHHHHMSAKSRTIGIIGAPFSKGQPRGGVEEGPTVLRKAGLLEKLKEQECDVKDYGDLPFADIPNDSPFQIVKNPRSVGKASEQLAGKVAQVKKNGRISLVLGGDHSLAIGSISGHARVHPDLGVIWVDAHTDINTPLTTTSGNLHGQPVSFLLKELKGKIPDVPGFSWVTPCISAKDIVYIGLRDVDPGEHYILKTLGIKYFSMTEVDRLGIGKVMEETLSYLLGRKKRPIHLSFDVDGLDPSFTPATGTPVVGGLTYREGLYITEEIYKTGLLSGLDIMEVNPSLGKTPEEVTRTVNTAVAITLACFGLAREGNHKPIDYLNPPK
# modifications: PEGylated
# Key:
# 2.2.15 cells = test: Arginase toxicity to cells (CPE method, Reed-Muench); assay type: cell-based, human; conditions: 8 days drug addition
# Description: Divide experiment into control group and test groups with different drug concentration. Digest cells, dilute to 200,000 cells/ml, transfer to culture plate, 100 μl per well for 96-well plate, incubate for 24 hours under 5% CO2 at 37° C., ready for experiment when cells grown into monolayer. […] Observe cytopathological changes, 8 days or 4 days under microscope, totally destroyed is 4; 75% destroyed is 3; 50% destroyed is 2, 25% destroyed is 1; no changes is 0. Calculate TC50 and TC0 according to Reed-Muench Method:
# A=log>50% drug concentration; B=log<50% drug concentration; C=log times of dilution
# Starting from 40 IU/ml and subsequently 20, 10, 5, 2.5 IU/ml, change drug solution every 4 days until 8 days, observe cytopathological changes under microscope, and check for CPE with microscope.
# HBeAg = test: Suppression of HBeAg secretion in 2.2.15 cells (radioimmunoassay, cpm); assay type: cell-based, hepatitis B virus
# Description: (§1) Grow 200000 cells/ml 2.2.15 cell on 24-well plate, 1 ml per well, incubate for 24 hours under 5% CO2 at 37° C. […] 4 wells per concentration, incubate under 5% CO2 at 37° C., change drug solution every 4 days with the same concentration, retrieve culture medium at day 8, preserve at −20° C. Repeat experiment for 2 batches, test for HBsAg and HBeAg separately. Check cpm value for each wells using γ-counter.
# (§2) Calculating drug effectiveness: calculate the mean and standard deviation of cpm from the cell control group and groups with different drug concentration, P/N value and percent suppression, IC50 and SI. • (1)
# (§3) [formula] • (2) Calculate IC50 for drug suppression of antigen:
# (§4) [formula] • (4) Calculate the cpm differences between HBsAg and HBeAg in different dilutions and control groups by t-test.
# HBsAg = test: Suppression of HBsAg secretion in 2.2.15 cells (radioimmunoassay, cpm); assay type: cell-based, hepatitis B virus; conditions: for HBsAg IC50: first batch
# Description: as §1, §2, §3, §4
# [1] = tested on: HBV-DNA in supernatant of 2.2.15 cell culture; test: HBV-DNA dot blot in supernatant of 2.2.15 cell culture; assay type: cell-based, hepatitis B virus
# Description: Extraction of HBV-DNA from 2.2.15 cells supernatant: Grow 200000 cells/ml 2.2.15 cell on 24-well plate, 1 ml per well, add drugs after 24 hours incubation, change drug solution every 4 days with the same concentration, collect supernatant from cell culture after 8 days of incubation counted from the day drugs added into the culture, precipitate with polyethylene glycol, digest with proteinase K, extract with phenol:chloroform:isopentanol, nucleic acid precipitation by absolute ethanol and so on procedures, vacuum dry, re-dissolve in TE buffer as sample.
# Dot blot: place dots: take 20 μl sample (contains 25 μg DNA), denature, neutralize, serial dilute 20×SSC buffer to 1:8 dilution on nitrocellulose membrane, oven dry, pre-hybridize, hybridize, wash membrane, radioactive self exposure and so on procedures. Develop X ray film with conventional method. Scan developed film with scanner, measure density with gel-pro software, calculate suppression rate and IC50.
# [2] = 2.2.15 cells, 8 days incubation, TC0 concentration and dilutions
# [3] = Arginase 1.25 IU/ml, batch 2, day 8
# [4] = Arginase 1.25 IU/ml, two batches average line, day 8
# [5] = Arginase 2.5 IU/ml, batch 1, day 8
# [6] = Arginase 2.5 IU/ml, batch 2, day 8
# [7] = Arginase 2.5 IU/ml, two batches average, day 8
# [8] = Arginase 5 IU/ml, batch 1, day 8
# [9] = Arginase 5 IU/ml, batch 2, day 8
# [10] = Arginase 5 IU/ml, two batches average, day 8
# [11] = Arginase 10 IU/ml, batch 1, day 8
# [12] = Arginase 10 IU/ml, batch 2, day 8
# [13] = Arginase 10 IU/ml, two batches average, day 8
# [14] = Arginase 20 IU/ml, batch 1, day 8
# [15] = Arginase 20 IU/ml, two batches average, day 8
# [16] = Arginase 20 IU/ml, two batches average, day 8, listed as pegylated recombinant arginase
molecule,measurement,setting,value
B1,TC50,2.2.15 cells,40 IU/ml
same,TC0,2.2.15 cells; listed as pegylated recombinant arginase,20±0 IU/ml
same,Suppression of HBeAg secretion (result in words),HBeAg; [2],significantly inhibits
same,HBeAg (CPM) % suppression,HBeAg; [3],37.3426%
same,HBeAg (CPM) % suppression,HBeAg; [4],37.34%
same,HBeAg (CPM) % suppression,HBeAg; [5],61.8387%
same,HBeAg (CPM) % suppression,HBeAg; [6],41.8149%
same,HBeAg (CPM) % suppression,HBeAg; [7],51.83±14.16%
same,HBeAg (CPM) % suppression,HBeAg; [8],68.3484%
same,HBeAg (CPM) % suppression,HBeAg; [9],39.5618%
same,HBeAg (CPM) % suppression,HBeAg; [10],53.96±20.36%
same,HBeAg (CPM) % suppression,HBeAg; [11],73.0985%
same,HBeAg (CPM) % suppression,HBeAg; [12],48.3596%
same,HBeAg (CPM) % suppression,HBeAg; [13],60.73±17.49%
same,HBeAg (CPM) % suppression,HBeAg; [14],74.9808%
same,HBeAg (CPM) % suppression,"HBeAg; Arginase 20 IU/ml, batch 2, day 8",62.4033%
same,HBeAg (CPM) % suppression,HBeAg; [15],68.69±8.89%
same,HBeAg (CPM) % suppression,HBeAg; [16],68.69±8.89%
same,HBeAg IC50,"HBeAg; batch 1, day 8",6.69 IU/ml
same,HBeAg IC50,"HBeAg; batch 2, day 8",6.05 IU/ml
same,HBeAg IC50,"HBeAg; two batches average, day 8",6.37 ± 0.45 IU/ml and 6.37 IU/ml
same,HBeAg IC50,"HBeAg; two batches average, day 8, listed as pegylated recombinant arginase",6.37±0.45 IU/ml
same,Suppression of HBsAg secretion (result in words),HBsAg; [2],significantly inhibits
same,HBsAg (CPM) % suppression,HBsAg; [3],4.463%
same,HBsAg (CPM) % suppression,HBsAg; [4],4.46%
same,HBsAg (CPM) % suppression,HBsAg; [5],37.18% and 37.1787%
same,HBsAg (CPM) % suppression,HBsAg; [6],2.6073%
same,HBsAg (CPM) % suppression,HBsAg; [7],19.92 ± 24.40%
same,HBsAg (CPM) % suppression,HBsAg; [8],42.29% and 42.2871%
same,HBsAg (CPM) % suppression,HBsAg; [9],1.4739%
same,HBsAg (CPM) % suppression,HBsAg; [10],21.88 ± 28.86%
same,HBsAg (CPM) % suppression,HBsAg; [11],47.97% and 47.9651%
same,HBsAg (CPM) % suppression,HBsAg; [12],6.0761%
same,HBsAg (CPM) % suppression,HBsAg; [13],27.02 ± 29.62%
same,HBsAg (CPM) % suppression,HBsAg; [14],49.16% and 49.1558%
same,HBsAg (CPM) % suppression,HBsAg; [15],29.81±27.35%
same,HBsAg (CPM) % suppression,HBsAg; [16],29.81±27.35%
same,HBsAg IC50,HBsAg; day 8,(1)10.72 IU/ml
same,HBsAg IC50,"HBsAg; day 8, listed as pegylated recombinant arginase",10.72 IU/ml
same,% suppression of HBV-DNA in cell culture supernatant,"[1]; Arginase 1.25 μg/ml (unit as headed), batch 2, day 8",15.7769%
same,"HBV-DNA in cell culture supernatant, Original Solution (IOD)","[1]; Arginase 1.25 μg/ml (unit as headed), batch 2, day 8, control 4651.67",3917.78 IOD
same,% suppression of HBV-DNA in cell culture supernatant,"[1]; Arginase 2.5 μg/ml (unit as headed), batch 1, day 8",24.9152%
same,"HBV-DNA in cell culture supernatant, Original Solution (IOD)","[1]; Arginase 2.5 μg/ml (unit as headed), batch 1, day 8, control 2375.1",1783.34 IOD
same,% suppression of HBV-DNA in cell culture supernatant,"[1]; Arginase 2.5 μg/ml (unit as headed), batch 2, day 8",11.466%
same,"HBV-DNA in cell culture supernatant, Original Solution (IOD)","[1]; Arginase 2.5 μg/ml (unit as headed), batch 2, day 8, control 4651.67",4118.31 IOD
same,% suppression of HBV-DNA in cell culture supernatant,"[1]; Arginase 5 μg/ml (unit as headed), batch 1, day 8",11.9877%
same,"HBV-DNA in cell culture supernatant, Original Solution (IOD)","[1]; Arginase 5 μg/ml (unit as headed), batch 1, day 8, control 2375.1",2090.38 IOD
same,% suppression of HBV-DNA in cell culture supernatant,"[1]; Arginase 5 μg/ml (unit as headed), batch 2, day 8",43.8243%
same,"HBV-DNA in cell culture supernatant, Original Solution (IOD)","[1]; Arginase 5 μg/ml (unit as headed), batch 2, day 8, control 4651.67",2613.11 IOD
same,% suppression of HBV-DNA in cell culture supernatant,"[1]; Arginase 10 μg/ml (unit as headed), batch 1, day 8",29.2409%
same,"HBV-DNA in cell culture supernatant, Original Solution (IOD)","[1]; Arginase 10 μg/ml (unit as headed), batch 1, day 8, control 2375.1",1680.6 IOD
same,% suppression of HBV-DNA in cell culture supernatant,"[1]; Arginase 10 μg/ml (unit as headed), batch 2, day 8",38.0549%
same,"HBV-DNA in cell culture supernatant, Original Solution (IOD)","[1]; Arginase 10 μg/ml (unit as headed), batch 2, day 8, control 4651.67",2881.48 IOD
same,% suppression of HBV-DNA in cell culture supernatant,"[1]; Arginase 20 μg/ml (unit as headed), batch 1, day 8",30.8113%
same,"HBV-DNA in cell culture supernatant, Original Solution (IOD)","[1]; Arginase 20 μg/ml (unit as headed), batch 1, day 8, control 2375.1",1643.3 IOD
same,% suppression of HBV-DNA in cell culture supernatant,"[1]; Arginase 20 μg/ml (unit as headed), batch 2, day 8",47.7577%
same,"HBV-DNA in cell culture supernatant, Original Solution (IOD)","[1]; Arginase 20 μg/ml (unit as headed), batch 2, day 8, control 4651.67",2430.14 IOD
same,"IC50, HBV-DNA dot blot in supernatant","[1]; batch 1, 8 days of incubation",16.04 IU/ml
same,"IC50, HBV-DNA dot blot in supernatant","[1]; batch 2, 8 days of incubation",10.31 IU/ml
same,"IC50, HBV-DNA dot blot in supernatant","[1]; two batches average, 8 days of incubation",13.18 IU/ml
same,"IC50, HBV-DNA dot blot in supernatant","[1]; two batches average, 8 days of incubation, listed as arginase",13.18±4.05 IU/ml
same,"IC50, HBV-DNA dot blot in supernatant","[1]; two batches average, 8 days of incubation, listed as pegylated recombinant arginase",13.18±0.45 IU/ml
